US20190375839A1 (JIANGSU HENGRUI MEDICINE, published 2019)

What follows are binders tested against T1, human TIM-3 full length, overexpressed on CHO-S cells (human, UniProt Q8TDQ0 22-301) (assay: cell-based ELISA on fixed CHO-S cells overexpressing human TIM-3;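 further: antibody binding at serial dilutions to PFA-fixed cells for 1 h at 37 °C, read as TMB colour signal after acid stop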).
T1 construct: cells fixed with 4% PFA on plates; also called HAVCR2; Tim-3-overexpressing CHO-S cells
Method: The binding activity of anti-TIM-3 antibody to CHO-S cells overexpressing human TIM-3 is detected via a binding assay. […] TIM-3-overexpressing cells were immobilized on a 96-well plate. After the addition of the antibody, signal strength was used to determine the binding activity of the antibody to Tim-3-overexpressing CHO-S cells.
The cells were inoculated on a 96-well plate with 4E5/ml density, 100 μg/well, and cultured overnight. Supernatant was discarded and the plate was washed three times with PBS. 100 μl/well of 4% PFA was added into each well, and the plate was fixed at room temperature for 30 minutes. The plate was washed three times with PBS. The liquid was discarded, and 200 μl of blocking solution (5% skim milk (Guangming skim milk powder) diluted with PBS) was added to each well. The plate was incubated at 37° C. for 2.5 h. Then the blocking solution was discarded, and the plate was washed 5 times with PBST buffer (pH 7.4 PBS containing 0.05% Tween-20). 50 μl/well of various concentrations of antibodies to be tested (antibody via hybridoma purification or humanized antibody), diluted with sample buffer, were added into each well, and incubated at 37° C. for 1 h. […] The plate was washed 6 times with PBST, and 100 μl/well TMB chromogenic substrates (KPL, Cat, No., 52-00-03) was added to each well. The plate was incubated at room temperature for 5-15 min. Reaction was stopped by the addition of 50 μl of 1 M H₂SO₄ to each well.

Binder | EC50
h1799-012 (antibody, human IgG4 S228P, kappa, Humanized IgG4 (S228P)/kappa) heavy: not shown light: DIQMTQSPSSLSASVGDRVTITCRASDNIYSYLAWYQQKPGKAPQLLVYNAKTLAEGVPSRFSGSGSGTDFTLTISSLQPEDFATYYCQQHYGSPLTFGQGTKLEIKRTVAAPSVFIFPPSDEQLKSGTASVVCLLNNFYPREAKVQWKVDNALQSGNSQESVTEQDSKDSTYSLSSTLTLSKADYEKHKVYACEVTHQGLSSPVTKSFNRGEC | 0.158 nM
h1799-018 (antibody, human IgG4 S228P, kappa, V domains shown, Humanized IgG4 (S228P)/kappa) VH: EVKLVESGGGLVQPGGSLRLSCAASGFTFSDYYMAWVRQAPGKGLEWVANINYDGSSTYYLDSLKSRFTISRDNAKNSLYLQMNSLKAEDTAVYYCARDVGYYGGNYGFAYWGQGTLVTVSS VL: DIQMTQSPSSLSASVGDRVTITCRASDNIYSYLAWYQQKPGKSPQLLVYNAKTLAEGVPSRFSGSGSGTDFTLTISSLQPEDFATYYCQQHYGSPLTFGQGTKLEIKR | 0.215 nM
h1799-017 (antibody, human IgG4 S228P, kappa, V domains shown, Humanized IgG4 (S228P)/kappa) VH: EVKLVESGGGLVQPGGSLRLSCAASGFTFSDYYMAWVRQAPGKGLEWVANINYDGSSTYYLDSLKSRFTISRDNAKNSLYLQMNSLKAEDTAVYYCARDVGYYGGNYGFAYWGQGTLVTVSS VL: DIQMTQSPSSLSASVGDRVTITCRASDNIYSYLAWYQQKPGKAPQLLVYNAKTLAEGVPSRFSGSGSGTDFTLTISSLQPEDFATYYCQQHYGSPLTFGQGTKLEIKR | 0.194 nM
h1701-005 (antibody, human IgG4 S228P, kappa, V domains shown, Humanized IgG4 (S228P)/kappa) VH: QVQLVQSGAEVKKPGASVKVSCKASGYTFTDYYMNWVRQAPGQGLEWMGDIIPNNGGSKYNQKFKDRVTMTTDTSTSTAYMELRSLRSDDTAVYYCARWGYGSSYRWFDYWGQGTLVTVSS VL: DIQMTQSPSSLSASVGDRVTITCLASQPIGIWLAWYQQKPGKAPKLLIYAATSLADGVPSRFSGSGSGTDFTFTISSLQPEDIATYYCQQLYSSPWTFGGGTKVEIKR | 0.602 nM
h1701-013 (antibody, human IgG4 S228P, kappa, V domains shown, Humanized IgG4 (S228P)/kappa) VH: QVQLVQSGAEVKKPGASVKVSCKASGYTFTDYYMNWVKQAPGQGLEWIGDIIPNNGGSKYNQKFKDRVTMTTDTSTSTAYMELRSLRSEDTAVYYCATWGYGSSYRWFDYWGQGTLVTVSS VL: DIQMTQSPSSLSASVGDRVTITCLASQPIGIWLAWYQQKPGKAPKLLIYAATSLADGVPSRFSGSGSGTDFTFTISSLQPEDIATYYCQQLYSSPWTFGGGTKVEIKR | 0.199 nM
h1701-006 (antibody, human IgG4 S228P, kappa, V domains shown, Humanized IgG4 (S228P)/kappa) VH: QVQLVQSGAEVKKPGASVKVSCKASGYTFTDYYMNWVRQAPGQGLEWMGDIIPNNGGSKYNQKFKDRVTMTTDTSTSTAYMELRSLRSDDTAVYYCARWGYGSSYRWFDYWGQGTLVTVSS VL: DIQMTQSPSSLSASVGDRVTITCLASQPIGIWLAWYQQKPGKSPKLLIYAATSLADGVPSRFSGSGSGTDFTFTISSLQPEDIATYYCQQLYSSPWTFGGGTKVEIKR | 0.735 nM
h1701-008 (antibody, human IgG4 S228P, kappa, V domains shown, Humanized IgG4 (S228P)/kappa) VH: QVQLVQSGAEVKKPGASVKVSCKASGYTFTDYYMNWVRQAPGQGLEWIGDIIPNNGGSKYNQKFKDRVTMTTDTSTSTAYMELRSLRSDDTAVYYCARWGYGSSYRWFDYWGQGTLVTVSS VL: DIQMTQSPSSLSASVGDRVTITCLASQPIGIWLAWYQQKPGKSPKLLIYAATSLADGVPSRFSGSGSGTDFTFTISSLQPEDIATYYCQQLYSSPWTFGGGTKVEIKR | 2.42 nM
h1701-012 (antibody, human IgG4 S228P, kappa, V domains shown, Humanized IgG4 (S228P)/kappa) VH: QVQLVQSGAEVKKPGASVKVSCKASGYTFTDYYMNWVRQAPGQGLEWIGDIIPNNGGSKYNQKFKDRVTMTTDTSTSTAYMELRSLRSDDTAVYYCATWGYGSSYRWFDYWGQGTLVTVSS VL: DIQMTQSPSSLSASVGDRVTITCLASQPIGIWLAWYQQKPGKSPKLLIYAATSLADGVPSRFSGSGSGTDFTFTISSLQPEDIATYYCQQLYSSPWTFGGGTKVEIKR | 0.221 nM
h1701-015 (antibody, human IgG4 S228P, kappa, V domains shown, Humanized IgG4 (S228P)/kappa) VH: QVQLVQSGAEVKKPGASVKVSCKASGYTFTDYYMNWVRQAPGQGLEWIADIIPNNGGSKYNQKFKDRATLTTDTSTSTAYMELRSLRSDDTAVYYCATWGYGSSYRWFDYWGQGTLVTVSS VL: DIQMTQSPSSLSASVGDRVTITCLASQPIGIWLAWYQQKPGKAPKLLIYAATSLADGVPSRFSGSGSGTDFTFTISSLQPEDIATYYCQQLYSSPWTFGGGTKVEIKR | 0.265 nM

The remaining binders from weak to strong by EC50, led by results:

EC50 | Binder
0.188 nM | h1799-015 (antibody, human IgG4 S228P, kappa, V domains shown, Humanized IgG4 (S228P)/kappa) VH: EVKLVESGGGLVQPGGSLRLSCAASGFTFSDYYMAWVRQAPGKGLEWVANINYDGSSTYYLDSLKSRFTISRDNAKNSLYLQMNSLKAEDTAVYYCARDVGYYGGNYGFAYWGQGTLVTVSS VL: DIQMTQSPSSLSASVGDRVTITCRASDNIYSYLAWYQQKPGKAPKLLIYNAKTLAEGVPSRFSGSGSGTDFTLTISSLQPEDFATYYCQQHYGSPLTFGQGTKLEIKR
0.188 nM | h1701-011 (antibody, human IgG4 S228P, kappa, V domains shown, Humanized IgG4 (S228P)/kappa) VH: QVQLVQSGAEVKKPGASVKVSCKASGYTFTDYYMNWVRQAPGQGLEWIGDIIPNNGGSKYNQKFKDRVTMTTDTSTSTAYMELRSLRSDDTAVYYCATWGYGSSYRWFDYWGQGTLVTVSS VL: DIQMTQSPSSLSASVGDRVTITCLASQPIGIWLAWYQQKPGKAPKLLIYAATSLADGVPSRFSGSGSGTDFTFTISSLQPEDIATYYCQQLYSSPWTFGGGTKVEIKR
0.139 nM | h1799-013 (antibody, human IgG4 S228P, kappa, Humanized IgG4 (S228P)/kappa) heavy: not shown light: DIQMTQSPSSLSASVGDRVTITCRASDNIYSYLAWYQQKPGKSPQLLVYNAKTLAEGVPSRFSGSGSGTDFTLTISSLQPEDFATYYCQQHYGSPLTFGQGTKLEIKRTVAAPSVFIFPPSDEQLKSGTASVVCLLNNFYPREAKVQWKVDNALQSGNSQESVTEQDSKDSTYSLSSTLTLSKADYEKHKVYACEVTHQGLSSPVTKSFNRGEC
0.124 nM | h1701-014 (antibody, human IgG4 S228P, kappa, V domains shown, Humanized IgG4 (S228P)/kappa) VH: QVQLVQSGAEVKKPGASVKVSCKASGYTFTDYYMNWVKQAPGQGLEWIGDIIPNNGGSKYNQKFKDRVTMTTDTSTSTAYMELRSLRSEDTAVYYCATWGYGSSYRWFDYWGQGTLVTVSS VL: DIQMTQSPSSLSASVGDRVTITCLASQPIGIWLAWYQQKPGKSPKLLIYAATSLADGVPSRFSGSGSGTDFTFTISSLQPEDIATYYCQQLYSSPWTFGGGTKVEIKR
0.119 nM | h1799-019 (antibody, human IgG4 S228P, kappa, V domains shown, Humanized IgG4 (S228P)/kappa) VH: EVKLVESGGGLVQPGGSLRLSCAASGFTFSDYYMAWVRQAPGKGLEWVANINYDGSSTYYLDSLKSRFTISRDNAKNSLYLQMNSLKAEDTAVYYCARDVGYYGGNYGFAYWGQGTLVTVSS VL: DIQMTQSPSSLSASVGDRVTITCRASDNIYSYLAWYQQKPGKSPQLLVYNAKTLAEGVPSRFSGSGSGTDFTLTISSLQPEDFASYYCQQHYGSPLTFGQGTKLEIKR
0.117 nM | h1799-016 (antibody, human IgG4 S228P, kappa, V domains shown, Humanized IgG4 (S228P)/kappa) VH: EVKLVESGGGLVQPGGSLRLSCAASGFTFSDYYMAWVRQAPGKGLEWVANINYDGSSTYYLDSLKSRFTISRDNAKNSLYLQMNSLKAEDTAVYYCARDVGYYGGNYGFAYWGQGTLVTVSS VL: DIQMTQSPSSLSASVGDRVTITCRASDNIYSYLAWYQQKPGKAPKLLVYNAKTLAEGVPSRFSGSGSGTDFTLTISSLQPEDFATYYCQQHYGSPLTFGQGTKLEIKR
0.116 nM | h1799-014 (antibody, human IgG4 S228P, kappa, Humanized IgG4 (S228P)/kappa) heavy: not shown light: DIQMTQSPSSLSASVGDRVTITCRASDNIYSYLAWYQQKPGKSPQLLVYNAKTLAEGVPSRFSGSGSGTDFTLTISSLQPEDFASYYCQQHYGSPLTFGQGTKLEIKRTVAAPSVFIFPPSDEQLKSGTASVVCLLNNFYPREAKVQWKVDNALQSGNSQESVTEQDSKDSTYSLSSTLTLSKADYEKHKVYACEVTHQGLSSPVTKSFNRGEC
0.114 nM | h1799-011 (antibody, human IgG4 S228P, kappa, Humanized IgG4 (S228P)/kappa) heavy: not shown light: DIQMTQSPSSLSASVGDRVTITCRASDNIYSYLAWYQQKPGKAPKLLVYNAKTLAEGVPSRFSGSGSGTDFTLTISSLQPEDFATYYCQQHYGSPLTFGQGTKLEIKRTVAAPSVFIFPPSDEQLKSGTASVVCLLNNFYPREAKVQWKVDNALQSGNSQESVTEQDSKDSTYSLSSTLTLSKADYEKHKVYACEVTHQGLSSPVTKSFNRGEC
0.109 nM | h1799-007 (antibody, human IgG4 S228P, kappa, Humanized IgG4 (S228P)/kappa) heavy: not shown light: DIQMTQSPSSLSASVGDRVTITCRASDNIYSYLAWYQQKPGKAPQLLVYNAKTLAEGVPSRFSGSGSGTDFTLTISSLQPEDFATYYCQQHYGSPLTFGQGTKLEIKRTVAAPSVFIFPPSDEQLKSGTASVVCLLNNFYPREAKVQWKVDNALQSGNSQESVTEQDSKDSTYSLSSTLTLSKADYEKHKVYACEVTHQGLSSPVTKSFNRGEC
0.105 nM | h1701-017 (antibody, human IgG4 S228P, kappa, V domains shown, Humanized IgG4 (S228P)/kappa) VH: QVQLVQSGAEVKKPGASVKVSCKASGYTFTDYYMNWVKQAPGQGLEWIADIIPNNGGSKYNQKFKDRATLTTDTSTSTAYMELRSLRSEDTAVYYCATWGYGSSYRWFDYWGQGTLVTVSS VL: DIQMTQSPSSLSASVGDRVTITCLASQPIGIWLAWYQQKPGKAPKLLIYAATSLADGVPSRFSGSGSGTDFTFTISSLQPEDIATYYCQQLYSSPWTFGGGTKVEIKR
0.087 nM | h1701-018 (antibody, human IgG4 S228P, kappa, V domains shown, Humanized IgG4 (S228P)/kappa) VH: QVQLVQSGAEVKKPGASVKVSCKASGYTFTDYYMNWVKQAPGQGLEWIADIIPNNGGSKYNQKFKDRATLTTDTSTSTAYMELRSLRSEDTAVYYCATWGYGSSYRWFDYWGQGTLVTVSS VL: DIQMTQSPSSLSASVGDRVTITCLASQPIGIWLAWYQQKPGKSPKLLIYAATSLADGVPSRFSGSGSGTDFTFTISSLQPEDIATYYCQQLYSSPWTFGGGTKVEIKR
0.076 nM | h1799-009 (antibody, human IgG4 S228P, kappa, Humanized IgG4 (S228P)/kappa) heavy: not shown light: DIQMTQSPSSLSASVGDRVTITCRASDNIYSYLAWYQQKPGKSPQLLVYNAKTLAEGVPSRFSGSGSGTDFTLTISSLQPEDFASYYCQQHYGSPLTFGQGTKLEIKRTVAAPSVFIFPPSDEQLKSGTASVVCLLNNFYPREAKVQWKVDNALQSGNSQESVTEQDSKDSTYSLSSTLTLSKADYEKHKVYACEVTHQGLSSPVTKSFNRGEC
0.067 nM | h1799-008 (antibody, human IgG4 S228P, kappa, Humanized IgG4 (S228P)/kappa) heavy: not shown light: DIQMTQSPSSLSASVGDRVTITCRASDNIYSYLAWYQQKPGKSPQLLVYNAKTLAEGVPSRFSGSGSGTDFTLTISSLQPEDFATYYCQQHYGSPLTFGQGTKLEIKRTVAAPSVFIFPPSDEQLKSGTASVVCLLNNFYPREAKVQWKVDNALQSGNSQESVTEQDSKDSTYSLSSTLTLSKADYEKHKVYACEVTHQGLSSPVTKSFNRGEC
